Experimental data published in PMC7654188.

Target: preassembled microtubule filaments (tubulin polymerised with Taxol)
Experiment: co-sedimentation; microtubule spin-down assay (Cytoskeleton BK029): 5, 10 and 20 ug of COS1 lysate with or without Taxol-stabilised microtubule, room temperature 30 min, 60% glycerol cushion, 100,000 x g 40 min; pellet blotted with HA tag and alpha-tubulin antibodies

fold microtubule binding relative to WT protein: 2.5 to 4 fold
Substance: HA-tagged CTTNBP2 D570Y (natural protein)
